Drawing on patent publication US7176008B2, “Process for producing activated thrombin-activatable fibrinolysis inhibitor” (Merck & Co., Inc., priority 2002, dated 2007), this text covers Km for three proteins.

Substrate in this series: CSCC[C@H](NC(=O)[C@H](CC(C)C)NC(=O)CNC(=O)CCCCCNC(=O)CCCCCNC(=O)CCCC[C@@H]1SC[C@@H]2NC(=O)N[C@@H]21)C(=O)N[C@H](C(=O)NCC(=O)NCC(=O)N[C@H](C(=O)N[C@H](C(=O)N[C@@H](CCCNC(=N)N)C(=O)O)C(C)C)C(C)C)C(C)C
In words: purified protein, by the assay type. Conditions: other: room temperature.

Method: A typical assay (75 μL) contained each studied carboxypeptidase and selected inhibitors (in 5 μL DMSO) in HBSP buffer in 96-well round bottom microtiter plates (Costar 3365 plates). Enzyme and compound were preincubated for 15–30 minutes at room temperature. […] The final substrate concentration was 15 to 50 nM. The amount of carboxypeptidase activity was titrated to result in 40,000–50,000 electrochemiluminescence counts (typically 0.02–0.1 nM, 0.01 nM, 5 nM, and 0.15–0.65 nM. for TAFIa, CPB, CPN and CPM, respectively). […] Ruthenium-labeled G2-10 (25 μL of 0.063 μg/mL) and streptavidin magnetic beads (25 μL of 0.2 mg/mL, Dynabeads M-280) were added to the quenched solution and shaken at 300 rpm for >1 hr. G2-10 antibody and beads were prepared in a BSA diluent containing 150 mM phosphate, pH 7.8, 150 mM NaCl, 3% (w/v) BSA (protease free fraction V) and 0.05% NaN3. The volume was brought to 250 μL with HBSP and read on an Igen 96-well electrochemiluminescence plate reader (M8 Analyzer) at 620 nm. Subtraction of background activity in solutions containing only substrate was performed to determine the final activity. […] One unit was defined as one nM product generated per min.
All measurements were performed in at least duplicates and the inhibition constants (Ki) were determined by the equation below wherein Vo and Vi are activity in the absence and presence of inhibitors, respectively. Vo/Vi=1+[I]/K1
Several commercial inhibitors were tested with the electrochemiluminescence assay.
Hydrolysis of substrate was measured in HBSP (pH 7.4) for TAFIa, CPB, CPM, and CPM. Activities of CPE and CPZ were measures in acetate buffer (pH 5.5) and Tris buffer (pH 7.4), respectively.

B1: CPB (Homo sapiens) (protein)
chain: ATGHSYEKYNKWETIEAWTQQVATENPALISRSVIGTTFEGRAIYLLKVGKAGQNKPAIFMDCGFHAREWISPAFCQWFVREAVRTYGREIQVTELLDKLDFYVLPVLNIDGYIYTWTKSRFWRKTRSTHTGSSCIGTDPNRNFDAGWCEIGASRNPCDETYCGPAAESEKETKALADFIRNKLSSIKAYLTIHSYSQMMIYPYSYAYKLGENNAELNALAKATVKELASLHGTKYTYGPGATTIYPAAGGSDDWAYDQGIRYSFTFELRDTGRYGFLLPESQIRATCEETFLAIKYVASYVLEHLY
In general, Km refers to the substrate concentration at which the rate is half of its maximum. With B1, the Km (HBSP pH 7.4) turned out to be 12 µM.

B2: CPM (Homo sapiens) (protein)
chain: LDFNYHRQEGMEAFLKTVAQNYSSVTHLHSIGKSVKGRNLWVLVVGRFPKEHRIGIPEFKYVANMHGDETVGRELLLHLIDYLVTSDGKDPEITNLINSTRIHIMPSMNPDGFEAVKKPDCYYSIGRENYNQYDLNRNFPDAFEYNNVSRQPETVAVMKWLKTETFVLSANLHGGALVASYPFDNGVQATGALYSRSLTPDDDVFQYLAHTYASRNPNMKKGDECKNKMNFPNGVTNGYSWYPLQGGMQDYNYIWAQCFEITLELSCCKYPREEKLPSFWNNNKASLIEYIKQVHLGVKGQVFDQNGNPLPNVIVEVQDRKHICPYRTNKYGEYYLLLLPGSYIINVTVPGHDPHITKVIIPEKSQNFSALKKDILLPFQGQLDSIPVSNPSCPMIPLYRNLPDHS
Turning to B2, the Km amounted to 38 µM.

B3: TAFIa (Homo sapiens) (protein)
chain: ASASYYEQYHSLNEIYSWIEFITERHPDMLTKIHIGSSFEKYPLYVLKVSGKEQAAKNAIWIDCGIHAREWISPAFCLWFIGHITQFYGIIGQYTNLLRLVDFYVMPVVNVDGYDYSWKKNRMWRKNRSFYANNHCIGTDLNRNFASKHWCEEGASSSSCSETYCGLYPESEPEVKAVASFLRRNINQIKAYISMHSYSQHIVFPYSYTRSKSKDHEELSLVASEAVRAIEKISKNTRYTHGHGSETLYLAPGGGDDWIYDLGIKYSFTIELRDTGTYGFLLPERYIKPTCREAFAAVSKIAWHVIRNV
With B3, the Km (HBSP pH 7.4) stood at 8 µM.
